As a reminder, the Kd is the equilibrium constant for the complex coming apart.

For this assay, the target named is N-His-ZB-CSB-Avi-Biotin (WT), full length (human, UniProt Q03468 1-1493, biotin on the C-terminal Avi tag). Put plainly: SPR.
Chain of N-His-ZB-CSB-Avi-Biotin (WT), full length (Q03468 whole entry): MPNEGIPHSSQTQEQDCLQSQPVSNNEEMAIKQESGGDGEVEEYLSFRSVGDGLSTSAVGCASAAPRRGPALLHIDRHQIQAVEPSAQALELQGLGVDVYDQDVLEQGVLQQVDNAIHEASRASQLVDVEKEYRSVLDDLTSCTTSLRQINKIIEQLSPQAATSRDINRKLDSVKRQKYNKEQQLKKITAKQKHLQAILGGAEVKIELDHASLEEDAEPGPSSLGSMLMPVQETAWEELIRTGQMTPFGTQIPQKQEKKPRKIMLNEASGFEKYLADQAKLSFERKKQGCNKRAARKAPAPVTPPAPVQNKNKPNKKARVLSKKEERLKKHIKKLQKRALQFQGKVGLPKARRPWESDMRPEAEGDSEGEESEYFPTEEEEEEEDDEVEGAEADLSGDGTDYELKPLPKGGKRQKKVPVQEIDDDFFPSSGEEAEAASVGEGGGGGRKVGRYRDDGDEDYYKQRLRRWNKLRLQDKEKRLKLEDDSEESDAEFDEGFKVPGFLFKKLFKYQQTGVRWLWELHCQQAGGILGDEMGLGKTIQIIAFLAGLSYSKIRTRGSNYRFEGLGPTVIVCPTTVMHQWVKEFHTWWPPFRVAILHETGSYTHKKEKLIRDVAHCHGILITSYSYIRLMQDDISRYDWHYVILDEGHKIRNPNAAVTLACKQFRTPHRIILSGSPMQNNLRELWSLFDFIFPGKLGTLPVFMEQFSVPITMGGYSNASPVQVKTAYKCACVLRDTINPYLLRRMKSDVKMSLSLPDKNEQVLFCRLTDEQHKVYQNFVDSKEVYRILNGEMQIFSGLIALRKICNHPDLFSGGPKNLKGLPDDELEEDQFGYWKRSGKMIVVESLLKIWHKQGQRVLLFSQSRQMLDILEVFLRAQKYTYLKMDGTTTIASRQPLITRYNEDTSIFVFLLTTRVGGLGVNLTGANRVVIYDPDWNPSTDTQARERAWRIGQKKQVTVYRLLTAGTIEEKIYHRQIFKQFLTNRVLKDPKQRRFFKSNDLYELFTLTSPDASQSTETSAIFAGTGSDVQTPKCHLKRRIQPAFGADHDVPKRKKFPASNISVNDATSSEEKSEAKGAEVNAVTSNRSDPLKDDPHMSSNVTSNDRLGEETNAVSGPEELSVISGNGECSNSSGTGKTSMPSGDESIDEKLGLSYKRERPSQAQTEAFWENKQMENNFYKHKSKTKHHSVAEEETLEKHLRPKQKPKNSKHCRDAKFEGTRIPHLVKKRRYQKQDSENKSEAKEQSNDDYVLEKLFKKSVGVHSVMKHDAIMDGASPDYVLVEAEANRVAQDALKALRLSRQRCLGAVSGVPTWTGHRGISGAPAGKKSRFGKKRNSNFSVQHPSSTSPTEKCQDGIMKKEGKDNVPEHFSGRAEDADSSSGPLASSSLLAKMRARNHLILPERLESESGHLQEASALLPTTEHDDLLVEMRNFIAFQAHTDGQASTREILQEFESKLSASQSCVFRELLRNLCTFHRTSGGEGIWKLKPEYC

B1: SNM1A (WT, a.a. 698-1040, untagged) (domain or fragment)
chain: KKTCPFYKKIPGTGFTVDAFQYGVVEGCTAYFLTHFHSDHYAGLSKHFTFPVYCSEITGNLLKNKLHVQEQYIHPLPLDTECIVNGVKVVLLDANHCPGAVMILFYLPNGTVILHTGDFRADPSMERSLLADQKVHMLYLDTTYCSPEYTFPSQQEVIRFAINTAFEAVTLNPHALVVCGTYSIGKEKVFLAIADVLGSKVGMSQEKYKTLQCLNIPEINSLITTDMCSSLVHLLPMMQINFKGLQSHLKKCGGKYNQILAFRPTGWTHSNKFTRIADVIPQTKGNISIYGIPYSEHSSYLEMKRFVQWLKPQKIIPTVNVGTWKSRSTMEKYFREWKLEAGY
The molecule B1 yielded a Kd of 140 nM.

These data come from paper PMC12668182 (2025).
